Data taken from article PMC9887883, “A family of C. elegans VASA homologs control Argonaute pathway specificity and promote transgenerational silencing”.

Target: T1, GLH-1(DQAD) (Caenorhabditis elegans, UniProt P34689 1-763, E500Q)
T1 sequence: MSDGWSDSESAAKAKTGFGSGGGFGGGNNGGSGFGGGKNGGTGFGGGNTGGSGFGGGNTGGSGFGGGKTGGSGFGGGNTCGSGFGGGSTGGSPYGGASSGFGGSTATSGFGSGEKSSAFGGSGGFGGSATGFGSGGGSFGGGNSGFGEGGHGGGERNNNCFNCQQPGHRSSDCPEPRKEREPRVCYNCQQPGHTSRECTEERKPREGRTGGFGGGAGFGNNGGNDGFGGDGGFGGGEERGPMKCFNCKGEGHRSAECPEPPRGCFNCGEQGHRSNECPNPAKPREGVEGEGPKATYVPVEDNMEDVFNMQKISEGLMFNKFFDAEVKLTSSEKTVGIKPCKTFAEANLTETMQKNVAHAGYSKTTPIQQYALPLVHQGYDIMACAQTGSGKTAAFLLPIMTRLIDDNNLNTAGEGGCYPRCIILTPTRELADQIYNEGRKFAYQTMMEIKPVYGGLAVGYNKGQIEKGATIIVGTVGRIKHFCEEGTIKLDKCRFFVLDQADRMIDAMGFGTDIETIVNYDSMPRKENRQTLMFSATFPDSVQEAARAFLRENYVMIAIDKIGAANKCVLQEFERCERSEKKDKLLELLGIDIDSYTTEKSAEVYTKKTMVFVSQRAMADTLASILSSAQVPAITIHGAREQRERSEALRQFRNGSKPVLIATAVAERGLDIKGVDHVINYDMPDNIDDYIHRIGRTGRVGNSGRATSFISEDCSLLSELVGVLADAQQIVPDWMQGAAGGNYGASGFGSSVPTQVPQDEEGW
Assay: EMSA; 2 mM ATP, 2 mM MgCl2; 10 uM protein, 2 uM RNA; strong ATP-dependent binding; 25 mM HEPES pH 7.4, 150 mM NaCl, 2 mM MgCl2, +/- 2 mM ATP, 30 min at RT; native 8% PAGE in TBE, cold room
Settings: protein: recombinant; tags: FLAG; label: 5'-Cy3 (Methods); single strand

B1: 22-nt ssRNA oligo (ssRNA)
RNA: GUCAAAGAUAGCCUUGACCUUG
  binding result: binds
